In the supplement of paper PMC9170038:

System: MS2 coat protein
Test: apparent KD of MS2 coat protein; designed switch direction (-1 OFF switch, 1 ON switch): 1; higher = weaker reporter binding
Outline: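 For each design, the apparent KD is the median over clusters of curves fitted to normalised cluster fluorescence. Clusters held RNA switches with common flanks, transcribed on Illumina chips by stalled E. coli RNA polymerase. These were titrated with SNAP-549-labelled MS2 coat protein, doubling from 0.7 or 1.5 nM to 3 µM, without input, with 200 uM small-molecule ligand, or with an oligonucleotide input.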

[1] = input ligand: microRNA oligo, concentration not stated
[2] = Eterna round: R95, input ligand: FMN 200 uM
[3] = Eterna round: R95, input ligand: microRNA oligo, concentration not stated
[4] = Eterna round: R95, input ligand: none

| Sequence | apparent KD of MS2 coat protein (input ligand: FMN 200 uM) | apparent KD of MS2 coat protein [1] | apparent KD of MS2 coat protein (input ligand: none) | apparent KD of MS2 coat protein [2] | apparent KD of MS2 coat protein [3] | apparent KD of MS2 coat protein [4] |
| --- | --- | --- | --- | --- | --- | --- |
| GCUAGAAAUAAAGCCAACAUGAGGAUCACCCAUGUAUGUUGGCAGGAUAUCGUUUGCUUUGCAAACGAGAAGGGCCAAACUAGC [Mat - Same State NG 3 - JL Mod - D1] (Eterna round: R96, puzzle: Same State NG 3) | 0.057 µM | 0.127 µM | 0.129 µM | – | – | – |
| GGUACCAACACAGGAUAUGCUAUCCUUUGGGUAGCAGAAGGGUGAAACAUGAGGAUCACCCAUGUGGUGCCAGGGCGUGAGCCC [JL SSNG1 1.93] (Eterna round: R96, puzzle: Same State NG 1) | 0.108 µM | 0.854 µM | 2.19 µM | – | – | – |
| GCUCGACUGAUGGCCUACAUGAGGAUCACCCAUGUGAUUGGGCAGGAUAUCUAGAUGCAGGAUGUAGAGAAGGGCCAGUCGAGC [SameState NG3 #45] (Eterna round: R96, puzzle: Same State NG 3) | 1.13 µM | 0.477 µM | 0.503 µM | – | – | – |
| UGUCCAGCCUGAGCUGGACAAAAGCAUGUACAUGAGGAUCACCCAUGUUCAUGUACAAGCUUUUUGCUCGUCUUAAA [salish99_208a_r3_030] (puzzle: Sensor for hsa-mir-208a) | – | – | – | 0.325 µM | 0.0147 µM | 0.37 µM |
| AUAAAACAUGAGGAUCACCCAUGUAGACGGAGAGCCGUCACAUAGGAUAUAGCCAGCGGUGUUGGCUAGAAGGGUGGUAGAAAA [Lavezaer] (Eterna round: R96, puzzle: Same State NG 3) | 0.0598 µM | 0.0781 µM | 0.13 µM | – | – | – |
| GCUCGGCUGAUGGCCUACAUGAGGAUCACCCAUGUGACUGGGCAGGAUAUCUAGAUGCAGGAUGUAGAGAAGGGCCUGCCGAGC [SameState NG3 #42] (Eterna round: R96, puzzle: Same State NG 3) | 0.704 µM | 0.224 µM | 0.458 µM | – | – | – |
| AGUAGUUUAACAUGAGGAUCACCCAUGUAUCUAUCUGUAACCUAGGAUAUGGACGUUUUAUUUAACCAGAAGGAGGAUCGUUUA [JR_SSNG3_Sub045] (Eterna round: R96, puzzle: Same State NG 3) | 0.0171 µM | 0.0169 µM | 0.0253 µM | – | – | – |
| GGACGUCACAUUAACAUGAGGAUCACCCAUGUCAAAAGACAUGAGGAUAUGGAUCCUAAUUGGAUCCAGAAGGCAUGGACGUCC [Fiskers NG3ss - 39] (Eterna round: R96, puzzle: Same State NG 3) | – | 0.373 µM | – | – | – | – |
| UGGCUCAGAGCAGGAUAUAUGUGGUCACAUGAGGAUCACCCAUGUCUCGAGCUUCGGCUCGAGGCAUAGAAGGGCUCUGAGCCA [SSNG2/5-B2] (Eterna round: R96, puzzle: Same State NG 2) | 0.55 µM | 0.048 µM | 0.0581 µM | – | – | – |
| GUUACAUGAGGAUCACCCAUGUAUGUGUGGGAGUAAGUGUCUUAGGAUAUCUGUUAUUUUAUUUAAGAGAAGGAAGAUUGUUGU [JMF's solution 39] (Eterna round: R96, puzzle: Same State NG 3) | 0.133 µM | 0.0689 µM | 0.0807 µM | – | – | – |
| GUAGAUGUAGAGGAGGAUAUUCAAUAGAGAACAUGAGGAUCACCCAUGUAAGAGAGAGAUGAUGGGAAGAAGGCUUAGAGAGAUG [Altered State 2-1 - Jieux - Same State 2] (puzzle: Same State 2) | – | – | – | 0.0722 µM | 0.0766 µM | 0.0948 µM |
| GAGUAGUUGAAAGGAUAUGGAUUGUUAUAGAAUCCAGAAGGUUCUAACAUGAGGAUCACCCAUGUAGGACUAUUCCUGUGUAUC [Parity 79 - Jieux - Same State NG 1] (Eterna round: R96, puzzle: Same State NG 1) | 0.0102 µM | 0.0093 µM | 0.0122 µM | – | – | – |
| UCAGUCAUGUAAGGAUAUGCAGCCGUUUCGGCUGCAGAAGGUACUAUAAUUACAUGAGGAUCACCCAUGUUAUAAAAUUUAUAU [JL SSNG1 1.25] (Eterna round: R96, puzzle: Same State NG 1) | – | 0.0388 µM | – | – | – | – |
| CUGCAACAUGAGGAUCACCCAUGUAACCCAAUUAUAGGAUAUGUGAUGGUGAUCGACAUGACAGAAGGGUGAUUGG [Arinra] (Eterna round: R96, puzzle: Same State 1) | 0.174 µM | 0.0297 µM | 0.0418 µM | – | – | – |
| GUGGUCAGACAUGAGGAUCACCCAUGUGGAAUAAAUAACGGUGAGGAUAUGGAAUAUAGGAUAUACUAGAAGGCAUGAUUGGUG (Eterna round: R96, puzzle: Same State NG 3) | 0.0915 µM | 0.0769 µM | 0.0923 µM | – | – | – |
| GUUAAGAACUAAGGAUAUUGAAUACAUAUGUUUAACAUGAGGAUCACCCAUGUGGGUUGCGGUGUCGAGAAGGUAGAAUAAUAG [Mat - same State NG 2 - JL mod - D98] (Eterna round: R96, puzzle: Same State NG 2) | – | 0.148 µM | – | – | – | – |
| GCUGCAAUUAACGCCUACAUGAGGAUCACCCAUGUAUGUAGGCAGGAUAUCGUUUGCUUUGCAAACGAGAAGGGCCGUAGUAGC [JL SSNG3 1.12] (Eterna round: R96, puzzle: Same State NG 3) | 0.0228 µM | 0.0376 µM | 0.0631 µM | – | – | – |
| GAAAGCAUGGGAGGAUAUAGCCUCUAUGGAGGGCUAGAAGGCCCUGGCCACAUGAGGAUCACCCAUGUGAAAUAAAUAGAAGAA [MOD Raarceza] (Eterna round: R96, puzzle: Same State NG 1) | 0.453 µM | 0.00274 µM | 0.188 µM | – | – | – |
| GAAGAACAUGAGGAUCACCCAUGUAAGCGGAAGCUAGGAUAUGCGGGAAAGAAAAGAGAAGCAGAAGGAGUAGGAA [JR_SS1_Sub028] (puzzle: Same State 1) | – | – | – | 0.033 µM | 0.0447 µM | 0.0682 µM |
| AACAAACAUGAGGAUCACCCAUGUACAGACCUGGACAUUGUCGAGGAUAUCAGCAAGAAAACAGCUGAGAAGGUGACGCCAGAG [Eternabot solution 6] (Eterna round: R96, puzzle: Same State NG 3) | 0.0308 µM | 0.0522 µM | 0.0703 µM | – | – | – |
| GUGGCCUAGGCACAGGAUAUGUUGCUCGUAACAUGAGGAUCACCCAUGUGCCUAUGAGAUUUAAUGCAGAAGGGUGCACGCCACG [Edbeso] (Eterna round: R96, puzzle: Same State 2) | 0.0143 µM | 0.123 µM | 0.139 µM | – | – | – |
| UCUUGGUUUUUGCUCGUUUUUUGUGUUGAACAUGAGGAUCACCCAUGUAUUGUACGGUCCGAUUUAAUAAUGGUCCA [JMF 38] (puzzle: Sensor for hsa-mir-208a) | – | – | – | 0.0303 µM | 0.0183 µM | 0.0324 µM |
| UCUUGGUUUUUGCUCGUUUUUUGUGUUGAACAUGAGGAUCACCCAUGUAUUGUACGGUCCAGUUUAGUAAUGGUCCA [JMF 7] (puzzle: Sensor for hsa-mir-208a) | – | – | – | 0.0263 µM | 0.0163 µM | 0.0278 µM |
